Among the targets are BMP-7 (UniProt P18075); GDF-5 (UniProt P43026); Activin (UniProt P08476).
Common to all, as to experiment: SPR

The record followed here is paper PMC3481545.

Sequence of GDF-5 (P43026 382-501): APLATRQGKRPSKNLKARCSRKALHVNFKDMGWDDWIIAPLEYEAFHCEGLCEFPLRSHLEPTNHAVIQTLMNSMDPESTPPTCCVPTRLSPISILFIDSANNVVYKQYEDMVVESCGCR
Sequence of BMP-7 (P18075 293-431): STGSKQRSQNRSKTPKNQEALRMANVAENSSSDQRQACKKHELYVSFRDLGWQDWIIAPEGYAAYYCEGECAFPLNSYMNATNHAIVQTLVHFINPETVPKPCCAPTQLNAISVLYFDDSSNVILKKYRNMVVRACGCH

By Kd is commonly meant the free concentration of one partner at which half of the binding sites on the other are occupied at equilibrium, for simple one-to-one binding. Low readings indicate a tighter complex, high ones a looser complex. Consider “AΔA: ActR-IIB ECD with its A-loop deleted (domain or fragment)”, for which the Kd was 30 µM with BMP-7, above 1300 µM with GDF-5 and above 1300 µM in the test with Activin.
“BΔB: BMPR-II ECD with its A-loop deleted (from UniProt Q13873 26-150) (domain or fragment)”: the results for the Kd with BMP-7, in the test with GDF-5 and with Activin were 27 µM, above 1300 µM and 94 µM, respectively.
For “human recombinant ActR-IIB ECD, wild type (from UniProt Q13705 19-134) (domain or fragment)”, the values for the Kd with BMP-7 and with GDF-5 were 16 µM and above 1300 µM, respectively.
